# Test results published in patent US20090304651A1 (published 2009).
# Like-named read-outs stand apart in the source and are kept apart here.
# Columns and labels:
# [1] = molecular target: T1, recombinant human IGF-II (Insulin-like Growth Factor II) (human, UniProt P01344 25-91, biotinylated (Biotinyl-IGF-II, GroPep) where immobilised in SPR, site not stated; not biotinylated in ITC and as SPR analyte); assay: SPR, steady-state KD relative to wild type
# T1 construct: also called IGF2; IGF-2
# Experimental: (§1) Duplicate analyte injections were performed at concentrations of 4096, 2048, 1024, 512, 256, 128, 64, 32, 16 and 8 nM.
# (§2) Kinetic analysis by Surface Plasmon Resonance (SPR) was conducted on a BIAcore 3000 biosensor (BIAcore, Uppsala, Sweden) at 25° C. in HBS-EP (10 mM HEPES, pH 7.4, 150 mM NaCl, 3 mM EDTA, 0.005% surfactant P20) at a flow rate of 40 μl/min. […] Kinetic experiments consisted of a two minute injection of analyte followed by a 100 s dissociation phase in running buffer, after which the binding surface was regenerated with a 2 minute injection of 2 M MgCl₂. A blank flow cell was used for in-line reference subtraction of changes due to differences in refractive index of running buffer versus sample and a buffer-only injection was used to subtract instrument noise and drift. Injections were performed in duplicate for each concentration and in a randomised order. Kinetic parameters were determined by global fitting of sensorgrams to a two-state (conformational change) binding model using BIAevaluation software version 4.0.1. In all cases the minor component made an insignificant contribution to the overall affinity and as such only the kinetic parameters of the major binding component were used. For each interaction the dissociation affinity constant (KD) was also calculated by fitting of the response of each concentration at equilibrium to a steady-state affinity model using BIAevaluation.
# [2] = molecular target: T1, recombinant human IGF-II (Insulin-like …); assay: SPR, IGF-II immobilised, kinetic fit
# Summary of the method: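 Kd, together with association and dissociation rates, was determined by globally fitting blank-flow-cell- and buffer-subtracted sensorgrams in BIAevaluation 4.0.1. The sensorgrams were recorded on a BIAcore 3000 at 25° C in HBS-EP, flowing at 40 μl/min, by injecting His-tag-purified, Pichia pastoris-secreted domain 11 proteins in duplicate and in randomised order over ~50 RU biotinylated IGF-II on a streptavidin Sensor Chip SA. Each injection lasted 2 min, followed by 100 s dissociation and regeneration with 2 M MgCl₂. Analyte was run at 4096–8 nM, except for three constructs run at 16384–32 nM.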
# [3] = molecular target: T1, recombinant human IGF-II (Insulin-like …); assay: SPR, steady-state KD relative to wild type; remark: listed apart in the source
# Summary of the method: (§3)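 Duplicate 2 min injections of His-tag-purified, Pichia pastoris-secreted domain 11 proteins at 4096–8 nM (16384–32 nM for three constructs) passed over ~50 RU biotinylated IGF-II on a streptavidin Sensor Chip SA. A BIAcore 3000 ran at 25° C in HBS-EP at 40 μl/min, with blank-flow-cell and buffer-injection responses subtracted. Equilibrium responses were fitted in BIAevaluation to a steady-state affinity model to yield Kd, and relative affinity scales each value to the unaltered domain 11 protein.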
# [4] = molecular target: T1, recombinant human IGF-II (Insulin-like …); assay: SPR, IGF-II immobilised, steady state
# Summary of the method: as §3
# [5] = molecular target: T1, recombinant human IGF-II (Insulin-like …); assay: SPR, IGF-II immobilised, kinetic fit; remark: listed apart in the source
# Experimental: as §1, §2
# [6] = molecular target: T1, recombinant human IGF-II (Insulin-like …); assay: SPR, IGF-II immobilised, steady state; remark: listed apart in the source
# Experimental: as §1, §2
# [7] = molecular target: T1, recombinant human IGF-II (Insulin-like …); assay: SPR, IGF-II immobilised
# Experimental: (§4) Kinetic experiments consisted of a two minute injection of analyte followed by a 100 s dissociation phase in running buffer, after which the binding surface was regenerated with a 2 minute injection of 2 M MgCl₂. A blank flow cell was used for in-line reference subtraction of changes due to differences in refractive index of running buffer versus sample and a buffer-only injection was used to subtract instrument noise and drift. Injections were performed in duplicate for each concentration and in a randomised order. Kinetic parameters were determined by global fitting of sensorgrams to a two-state (conformational change) binding model using BIAevaluation software version 4.0.1. In all cases the minor component made an insignificant contribution to the overall affinity and as such only the kinetic parameters of the major binding component were used. For each interaction the dissociation affinity constant (KD) was also calculated by fitting of the response of each concentration at equilibrium to a steady-state affinity model using BIAevaluation. In order to investigate the influence of ionic strength, kinetic experiments were conducted in HBS-EP running buffers containing the desired NaCl concentration. In each case, analyte samples were made up in the appropriate running buffer prior to injection.
# (§5) The affinity of versions of Fc-tagged domain 11 fusion proteins, and domain 11 constructs, for IGF-II were compared using surface plasmon resonance (BIAcore 3000). Attempts were made to immobilize Fc-tagged domain 11 proteins upon a sensor chip surface (CM5 and CM5-proteinA) but we encountered similar problems as described above with immobilised monomeric domain 11. Instead, immobilisation of biotinylated IGF-I and IGF-II on separate flow cells of a streptavidin coated sensor chip (BIAcore) generated reproducible sensorgram profiles when Fc-tagged and untagged domain 11 proteins were passed over the surface as analytes. The Fc-tagged domain 11 kinetic data performed in triplicate generated sensorgrams that were analyzed using a bivalent analyte model.
# [8] = molecular target: T2, recombinant human IGF-I (Insulin-like Growth Factor I) (human, UniProt P05019 49-118, biotinylated (Biotinyl-IGF-I, GroPep), site not stated); assay: SPR, biotinylated IGF-I immobilised
# T2 construct: also called IGF1; Biotinyl-IGF-I
# T2 sequence (P05019 49-118 limits assumed): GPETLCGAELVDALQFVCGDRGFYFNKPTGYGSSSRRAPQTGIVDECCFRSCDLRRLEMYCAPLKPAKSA
# Experimental: as §4, §5
# [9] = molecular target: T1, recombinant human IGF-II (Insulin-like …); assay: SPR, IGF-II immobilised, steady state; remark: listed apart in the source
# Experimental: as §2, with “BIAevaluation. […]” for “BIAevaluation.”
# [10] = molecular target: T1, recombinant human IGF-II (Insulin-like …); assay: SPR, IGF-II immobilised, kinetic fit; remark: listed apart in the source
# Experimental: as §2, with “BIAevaluation. In order to investigate the influence of ionic strength, kinetic experiments were conducted in HBS-EP running buffers containing the desired NaCl concentration. In each case, analyte samples were made up in the appropriate running buffer prior to injection.” for “BIAevaluation.”
# [11] = molecular target: T1, recombinant human IGF-II (Insulin-like …); assay: SPR, IGF-II immobilised, bivalent analyte model, ka1
# Experimental: as §4, with “In order to investigate the influence of ionic strength, kinetic experiments were conducted in HBS-EP running buffers containing the desired NaCl concentration. In each case, analyte samples were made up in the appropriate running buffer prior to injection.” left out
# (§6) The affinity of versions of Fc-tagged domain 11 fusion proteins, and domain 11 constructs, for IGF-II were compared using surface plasmon resonance (BIAcore 3000). […] The Fc-tagged domain 11 kinetic data performed in triplicate generated sensorgrams that were analyzed using a bivalent analyte model.
# [12] = molecular target: T1, recombinant human IGF-II (Insulin-like …); assay: SPR, IGF-II immobilised, bivalent analyte model, kd1
# Experimental: as §4, with “In order to investigate the influence of ionic strength, kinetic experiments were conducted in HBS-EP running buffers containing the desired NaCl concentration. In each case, analyte samples were made up in the appropriate running buffer prior to injection.” left out
# as §6
# [13] = molecular target: T1, recombinant human IGF-II (Insulin-like …); assay: SPR, IGF-II immobilised, bivalent analyte model
# Experimental: as §4, with “In order to investigate the influence of ionic strength, kinetic experiments were conducted in HBS-EP running buffers containing the desired NaCl concentration. In each case, analyte samples were made up in the appropriate running buffer prior to injection.” left out
# as §6
# [14] = molecular target: T1, recombinant human IGF-II (Insulin-like …); assay: SPR, biotinylated IGF-II immobilised
# Experimental: as §4, with “In order to investigate the influence of ionic strength, kinetic experiments were conducted in HBS-EP running buffers containing the desired NaCl concentration. In each case, analyte samples were made up in the appropriate running buffer prior to injection.” left out
# as §6
# T1 sequence (P01344 25-91 limits assumed): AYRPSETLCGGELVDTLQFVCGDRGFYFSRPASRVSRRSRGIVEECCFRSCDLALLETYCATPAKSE
binder,measurement,setting,value
"IGF2R domain 11 E1544V (amino acids 1511-1650, C-terminal His6 tag, from Pichia pastoris) (receptor) NEHDDCQVTNPSTGHLFDLSSLSGRAGFTAAYSVKGLVYMSICGENENCPPGVGACFGQTRISVGKANKRLRYVDQVLQLVYKDGSPCPSKSGLSYKSVISFVCRPEAGPTNRPMLISLDKQTCTLFFSWHTPLACEQATHHHHHH",Relative Affinity,[1],1.96 fold (wild type = 1.00)
same,Kd,[2],60.5 nM
same,koff,[2],0.0675 s⁻¹
same,kon,[2],1.12e+06 M⁻¹ s⁻¹
same,Relative Affinity,[3],1.96 fold (wild type = 1.00)
same,Kd,[4],52.7 nM
same,Kd,[5],49.8 nM
same,koff,[5],0.041 s⁻¹
same,kon,[5],837000 M⁻¹ s⁻¹
same,Kd,[6],52.7 nM
IGF2R domain 11 with cysteine at position 1544 (E1544C) (receptor) NEHDDCQVTNPSTGHLFDLSSLSGRAGFTAAYSCKGLVYMSICGENENCPPGVGACFGQTRISVGKANKRLRYVDQVLQLVYKDGSPCPSKSGLSYKSVISFVCRPEAGPTNRPMLISLDKQTCTLFFSWHTPLACEQATHHHHHH,binding result,[7],binds
"IGF2R domain 11 I1572A (amino acids 1511-1650, C-terminal His6 tag, from Pichia pastoris) (receptor, also called null mutant) NEHDDCQVTNPSTGHLFDLSSLSGRAGFTAAYSEKGLVYMSICGENENCPPGVGACFGQTRASVGKANKRLRYVDQVLQLVYKDGSPCPSKSGLSYKSVISFVCRPEAGPTNRPMLISLDKQTCTLFFSWHTPLACEQATHHHHHH",binding result,[8],no binding (tested: 16384 nM highest analyte concentration)
"IGF2R domain 11 expressed in E. coli (pET-15), refolded and purified (receptor, also called purified 11 from E. coli; native domain 11 protein) NEHDDCQVTNPSTGHLFDLSSLSGRAGFTAAYSEKGLVYMSICGENENCPPGVGACFGQTRISVGKANKRLRYVDQVLQLVYKDGSPCPSKSGLSYKSVISFVCRPEAGPTNRPMLISLDKQTCTLFFSWHTPLACEQAT",Kd,[9],114 nM
same,Kd,[10],114 nM
same,koff,[10],0.063 s⁻¹
same,kon,[10],553000 M⁻¹ s⁻¹
"Fc-tagged wild-type IGF2R domain 11 (11-Fc), human IgG1 Fc at the C-terminus, homodimer from Drosophila D.Mel-2 cells (Fc fusion, N-glycosylated with two 982.9 Da molecules of Man3GlcNAc2, also called 11^Wild type-Fc; 11^Wild type -Fc; not shown: human IgG1 Fc domain, amplified from IMAGE clone 4851063) NEHDDCQVTNPSTGHLFDLSSLSGRAGFTAAYSEKGLVYMSICGENENCPPGVGACFGQTRISVGKANKRLRYVDQVLQLVYKDGSPCPSKSGLSYKSVISFVCRPEAGPTNRPMLISLDKQTCTLFFSWHTPLACEQAT",kon,[11],1.36e+06 M⁻¹ s⁻¹
same,koff,[12],0.00445 s⁻¹
same,binding result,[8],no binding
same,Kd,[13],3.26 nM
"Fc-tagged enhanced mutant IGF2R domain 11 (11^E1544K-Fc), human IgG1 Fc at the C-terminus, homodimer from Drosophila D.Mel-2 cells (Fc fusion, N-glycosylated with two 982.9 Da molecules of Man3GlcNAc2, not shown: human IgG1 Fc domain, amplified from IMAGE clone 4851063) NEHDDCQVTNPSTGHLFDLSSLSGRAGFTAAYSKKGLVYMSICGENENCPPGVGACFGQTRISVGKANKRLRYVDQVLQLVYKDGSPCPSKSGLSYKSVISFVCRPEAGPTNRPMLISLDKQTCTLFFSWHTPLACEQAT",kon,[11],2.23e+06 M⁻¹ s⁻¹
same,Ru response amplitude relative to 11-Fc at equal concentrations,[7],~2 fold
same,molar affinity relative to 11-Fc,[7],~2 fold
same,koff,[12],0.00401 s⁻¹
same,binding result,[8],no binding
same,Kd,[13],1.79 nM
"Fc-tagged null mutant IGF2R domain 11 (11^I1572A-Fc), human IgG1 Fc at the C-terminus, homodimer from Drosophila D.Mel-2 cells (Fc fusion, N-glycosylated with two 982.9 Da molecules of Man3GlcNAc2, not shown: human IgG1 Fc domain, amplified from IMAGE clone 4851063) NEHDDCQVTNPSTGHLFDLSSLSGRAGFTAAYSEKGLVYMSICGENENCPPGVGACFGQTRASVGKANKRLRYVDQVLQLVYKDGSPCPSKSGLSYKSVISFVCRPEAGPTNRPMLISLDKQTCTLFFSWHTPLACEQAT",binding result,[14],no binding
same,binding result,[8],no binding
